# Substitutions are numbered along the chain they refer to. In names and notes the source's numbering stands.
# T1: human CTLA4 protein (human, UniProt P16410 37-162, limits assumed)
# T1 construct: bought protein coated on the ELISA plate; also called human CTLA4 antigen
# T1 sequence (looked up): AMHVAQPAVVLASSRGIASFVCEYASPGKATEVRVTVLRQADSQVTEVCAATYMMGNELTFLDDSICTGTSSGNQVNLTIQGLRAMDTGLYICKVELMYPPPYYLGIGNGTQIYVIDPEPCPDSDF
# B1: Abs-353 (other)
# heavy: VIHVTKEVKEVATLSCGHNVSVEELAQTRIYWQKNKKMVLTMMSGDMNIWPEYKNRTIFDITNNLSIVILELRPSDEGTYECVVLKYEKDAFKREHLAEVTLSVKADGGGGSGGGGSGGGGSGGGGSGEVQLLESGGGLVQPGGSLRLSCAASGFTFSSYAMSWVRQAPGKGLEWVSGISGSGGFTYYADSVKGRFTISRDNSKNTLYLQMNSLRAEDTAVYYCAKPPRGYNYGPFDYWGQGTLVTVSSASTKGPSVFPLAPCSRSTSESTAALGCLVKDYFPEPVTVSWNSGALTSGVHTFPAVLQSSGLYSLSSVVTVPSSSLGTKTYTCNVDHKPSNTKVDKRVESKYGPPCPPCPAPEFLGGPSVFLFPPKPKDTLMISRTPEVTCVVVDVSQEDPEVQFNWYVDGVEVHNAKTKPREEQFNSTYRVVSVLAVLHQDWLNGKEYKCKVSNKGLPSSIEKTISKAKGQPREPQVYTLPPSQEEMTKNQVSLTCLVKGFYPSDIAVAWESNGQPENNYKTTPPVLDSDGSFFLYSRLTVDKSRWQEGNVFSCSVMHEALHAHYTQKSLSLSLGK
# light: SYVLTQPPSVSVAPGQTARITCGGNNIGSKSVHWYQQKPGQAPVLVVYDDSDRPSGIPERFSGSNSGNTATLTISRVEAGDEADYYCQVWDSSSDHVVFGGGTKLTVLGQPKAAPSVTLFPPSSEELQANKATLVCLISDFYPGAVTVAWKADSSPVKAGVETTTPSKQSNNKYAASSYLSLTPEQWKSHRSYSCQVTHEGSTVEKTVAPTECS
# notes: CD80 IgV mutant fused to the N-terminus of the sugemalimab heavy chain; also called CD80 IgV mutant E35N/A71E-sugemalimab fusion
# B2: Abs-264 (other)
# heavy: B1 heavy with H18W, A26V, L85N
# light: B1 light
# notes: the paragraph that names the antibody is followed; also called CD80 IgV mutant H18W/A26V/E35N/A71E/L85N-sugemalimab fusion
# B3: Abs-257 (other)
# heavy: B1 heavy with H18W, A26C, N35E, L85N
# light: B1 light
# notes: the paragraph that names the antibody is followed; also called CD80 IgV mutant H18W/A26C/A71E/L85N-sugemalimab fusion
# B4: Abs-256 (other)
# heavy: B1 heavy with H18W, A26M, N35E, L85D
# light: B1 light
# notes: the paragraph that names the antibody is followed; also called CD80 IgV mutant H18W/A26M/A71E/L85D-sugemalimab fusion
# B5: Abs-356 (other)
# heavy: B1 heavy with E71T
# light: B1 light
# notes: CD80 IgV mutant fused to the N-terminus of the sugemalimab heavy chain; also called CD80 IgV mutant E35N/A71T-sugemalimab fusion
# B6: Abs-354 (other)
# heavy: B1 heavy with E71N
# light: B1 light
# notes: CD80 IgV mutant fused to the N-terminus of the sugemalimab heavy chain; also called CD80 IgV mutant E35N/A71N-sugemalimab fusion
# B7: Abs-99 (other)
# heavy: B1 heavy with N35E, E71A
# light: B1 light
# notes: CD80 IgV fused to the N-terminus of the heavy chain of the anti-PD-L1 antibody sugemalimab; also called wild type Abs-99; wild-type CD80 IgV-sugemalimab fusion polypeptide complex
# B8: Abs-355 (other)
# heavy: B1 heavy with E71Q
# light: B1 light
# notes: CD80 IgV mutant fused to the N-terminus of the sugemalimab heavy chain; also called CD80 IgV mutant E35N/A71Q-sugemalimab fusion
# B9: Abs-260 (other)
# heavy: B1 heavy with A26M, N35E, L85D
# light: B1 light
# notes: the paragraph that names the antibody is followed; also called CD80 IgV mutant A26M/A71E/L85D-sugemalimab fusion
# B10: Abs-263 (other)
# heavy: B1 heavy with N35E, I69L, V83L
# light: B1 light
# notes: the paragraph that names the antibody is followed; also called CD80 IgV mutant I69L/A71E/V83L-sugemalimab fusion
# B11: Abs-262 (other)
# heavy: B1 heavy with A26C, N35E, L85N
# light: B1 light
# notes: the paragraph that names the antibody is followed; also called CD80 IgV mutant A26C/A71E/L85N-sugemalimab fusion
# B12: Abs-268 (other)
# heavy: B1 heavy with T13K, N35E, M42T, M47H
# light: B1 light
# notes: the paragraph that names the antibody is followed; also called CD80 IgV mutant T13K/M42T/M47H/A71E-sugemalimab fusion
# B13: Abs-271 (other)
# heavy: B1 heavy with N35E, M47H, I69Y, V83L
# light: B1 light
# notes: CD80 IgV mutant fused to the N-terminus of the sugemalimab heavy chain; also called CD80 IgV mutant M47H/I69Y/A71E/V83L-sugemalimab fusion
# B14: Abs-366 (other)
# heavy: B1 heavy with N35T, E71N
# light: B1 light
# notes: CD80 IgV mutant fused to the N-terminus of the sugemalimab heavy chain; also called CD80 IgV mutant E35T/A71N-sugemalimab fusion
# B15: Abs-266 (other)
# heavy: B1 heavy with T13K, N35E, M42L, M47Q
# light: B1 light
# notes: the paragraph that names the antibody is followed; also called CD80 IgV mutant T13K/M42L/M47Q/A71E-sugemalimab fusion
# B16: Abs-272 (other)
# heavy: B1 heavy with N35E, M47Q, I69Y, V83L
# light: B1 light
# notes: CD80 IgV mutant fused to the N-terminus of the sugemalimab heavy chain; also called CD80 IgV mutant M47Q/I69Y/A71E/V83L-sugemalimab fusion
# B17: Abs-267 (other)
# heavy: B1 heavy with T13K, N35E, M42L
# light: B1 light
# notes: the paragraph that names the antibody is followed; also called CD80 IgV mutant T13K/M42L/A71E-sugemalimab fusion
# B18: Abs-273 (other)
# heavy: B1 heavy with N35E, M47K, I69Y, V83L
# light: B1 light
# notes: CD80 IgV mutant fused to the N-terminus of the sugemalimab heavy chain; also called CD80 IgV mutant M47K/I69Y/A71E/V83L-sugemalimab fusion
# B19: Abs-265 (other)
# heavy: B1 heavy with T13K, N35E, M42L, M47H
# light: B1 light
# notes: the paragraph that names the antibody is followed; also called CD80 IgV mutant T13K/M42L/M47H/A71E-sugemalimab fusion
# B20: Abs-270 (other)
# heavy: B1 heavy with T13K, N35E, M42T
# light: B1 light
# notes: CD80 IgV mutant fused to the N-terminus of the sugemalimab heavy chain; also called CD80 IgV mutant T13K/M42T/A71E-sugemalimab fusion
# Biological target: PD-L1 on TCR activator PD-L1-CHO cells (UniProt Q9NZQ7 19-290, limits assumed)
# Sequence (Q9NZQ7 19-290 limits assumed): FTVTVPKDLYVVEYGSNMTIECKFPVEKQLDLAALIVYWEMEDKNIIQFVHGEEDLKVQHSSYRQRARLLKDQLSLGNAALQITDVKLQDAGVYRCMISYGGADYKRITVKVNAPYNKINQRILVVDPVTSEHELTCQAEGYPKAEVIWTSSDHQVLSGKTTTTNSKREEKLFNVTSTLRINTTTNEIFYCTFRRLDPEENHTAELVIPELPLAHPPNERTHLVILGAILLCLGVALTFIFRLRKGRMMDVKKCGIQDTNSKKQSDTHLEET
# Assay: cell-based or functional assay
Binder,"EC50(nM), Jurkat-NFAT-Luc/CHO-PDL1 [nM]",The highest induction relative to 10 nM sugemalimab [%]
B1,0.48,1130
B2,0.82,154
B3,0.82,122
B4,0.87,133
B5,0.9,441
B6,0.25,1610
B7,0.28,215
B8,0.56,1110
B9,0.65,128

# Biological target: T2, human CD28 protein (human, UniProt P10747 19-152)
# T2 construct: bought protein coated on the ELISA plate; also called human CD28 antigen
# T2 sequence (P10747 19-152 limits assumed): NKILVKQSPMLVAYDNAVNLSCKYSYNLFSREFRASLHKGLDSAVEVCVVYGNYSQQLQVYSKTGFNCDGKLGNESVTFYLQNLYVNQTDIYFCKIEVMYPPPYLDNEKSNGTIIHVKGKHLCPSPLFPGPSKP
# Assay: ELISA, plate-coated human CD28
# Parameters: binding strength @ 100nM: reference not given here
Binder,EC50 [nM],binding strength @ 100nM [%],binding result
B1,25,1450,
B2,,,no binding
B10,26.1,333,
B3,,,no binding
B11,,,no binding
B4,,,no binding
B12,,,no binding
B5,27.8,733,
B6,22.1,6300,
B7,27.9,283,
B8,26.8,530,
B9,,,no binding
B13,,,no binding
B14,,,no binding
B15,,,no binding
B16,,,no binding
B17,,,no binding
B18,,,no binding
B19,,,no binding
B20,,,no binding

# Biological target: T1, human CTLA4 protein
# Assay: ELISA, plate-coated human CTLA4
Binder,EC50 [nM],binding strength @ 20nM [%],binding result
B1,0.128,2490,
B2,,,no binding
B10,,,no binding
B3,,,no binding
B11,,,no binding
B4,,,no binding
B12,,,no binding
B5,18.5,1670,
B6,0.124,3010,
B7,24.4,1200,
B8,0.236,3420,
B9,,,no binding
B13,,,no binding
B14,,,no binding
B15,,,no binding
B16,,,no binding
B17,13.7,1920,
B18,,,no binding
B19,,,no binding
B20,,,no binding

# Reference: patent EP4538286A1 (Adlai Nortye Biopharma Co., Ltd., dated 2025)
